# Measurements taken from patent US20070219354A1.
# Molecular target: APP695-derived polypeptide (SEQ. ID. NO.:28) having the modified sequence NLDV (SEQ. ID. NO.:7) (Homo sapiens (Human)) (UniProt P05067)
# Assay: cell-based or functional assay
substance,measurement,value
β-secretase of the HEK293T cells used in Example 4 (from UniProt P56817 46-501) (enzyme),"Aβ production in HEK293T cells (IP/Western, densitometry) (times the level of wild type APP695)",> 3
